Key:
[1] = target: human interleukin-6 (human) (UniProt P05231); experiment: SPR (BIAcore), purified scFv
[2] = target: human interleukin-6 (human) (UniProt P05231); experiment: SPR (BIAcore), human IL-6 immobilised, IL6gk3-2 scFv injected at 10 to 80 nM

Chain of UniProt P05231 (P05231 29-212 limits assumed): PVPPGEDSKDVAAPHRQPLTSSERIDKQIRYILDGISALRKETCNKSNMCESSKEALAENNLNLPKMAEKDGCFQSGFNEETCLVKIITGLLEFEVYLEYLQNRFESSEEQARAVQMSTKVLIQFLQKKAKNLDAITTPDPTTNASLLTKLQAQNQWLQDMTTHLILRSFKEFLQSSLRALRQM

B1: IL6gk3-2 scFv (purified soluble single chain Fv of the human anti-human IL-6 antibody clone IL6gk3-2) (scFv, part only; not given: linker and E-tag, V domains shown, not shown: another chain or arm of the molecule; small tags and cut ends)
VH: QVNLRESGGDLVKPGGSLRLSCAASGFTFRKYYMAWIRQAPGKGPEWLSTISNSGDIIDYADSVRGRFSISRDNAQKSLYLQMTSLRPDDSAIYYCAREYFFSFDVWGRGTMVTVSS
VL: DIVMTQSPSSVSASVGDRVTIFCRASQDIRNWVAWYQQKPGEAPKLLIYDGSSLQSGVPSRFSGSGSGTEFTLTISSLQPEDFATYYCQQSDSTPITFGQGTRLEIK
Kd [1]: 13 nM | koff [2]: 0.0008 s⁻¹ | kon [2]: 60000 M⁻¹ s⁻¹

Source: patent publication US20060240012A1
